Source: patent publication US20210107983A1 (Boehringer Ingelheim, published 2021)
Substitutions are numbered along the chain they refer to.

B1: B7H6#14/CD3#3 (bispecific antibody, human IgG1, kappa, L234A L235A)
chain 1: DIQMTQSPSSLSASVGDRVTITCKASQNVGKYVAWYQQKPGKAPKSLIYSASNRYDGVPSRFSGSGSGTDFTLTISSLQPEDFATYFCQQYISYPLTFGAGTKLEIKRTVAAPSVFIFPPSDEQLKSGTASVVCLLNNFYPREAKVQWKVDNALQSGNSQESVTEQDSKDSTYSLSSTLTLSKADYEKHKVYACEVTHQGLSSPVTKSFNRGECGGGGSEGKSSGSGSESKSTEGKSSGSGSESKSTGGGGSQVQLVQSGAEVKKPGASVKVSCKASGYTFTNYWMNWMKQAPGQGLEWIGGIYLNGDSTDYNEKFKGKVTMTVDTSTSTVYMELSSLRSEDTAVYYCTRRGDYFGDFWGQGTLVTVSSASTKGPSVFPLAPSSKSTSGGTAALGCLVKDYFPEPVTVSWNSGALTSGVHTFPAVLQSSGLYSLSSVVTVPSSSLGTQTYICNVNHKPSNTKVDKRVEPKSCDKTHTCPPCPAPEAAGGPSVFLFPPKPKDTLMISRTPEVTCVVVDVSHEDPEVKFNWYVDGVEVHNAKTKPREEQYNSTYRVVSVLTVLHQDWLNGKEYKCKVSNKALPAPIEKTISKAKGQPREPQVYTLPPSREEMTKNQVSLWCLVKGFYPSDIAVEWESNGQPENNYKTTPPVLDSDGSFFLYSKLTVDKSRWQQGNVFSCSVMHEALHNHYTQKSLSLSPG
chain 2: not shown
notes: scFab-Fc heterodimer
B2: B7H6#24/CD3#1 (bispecific antibody, human IgG1, kappa, lambda, L234A L235A)
chain 1: B1 chain 1 with G57A, A84T, F87Y, K290R, I300M, N306S, K319R
chain 2: EAVVTQEPSLTVSPGGTVTLTCRSSTGAVTTSNYANWVQEKPGQLPRGLIGGTNKRAPWVPARFSGSLLGGKAALTLSGAQPEDEAEYFCALWYSNLWVFGGGTKLTVLGQPKAAPSVTLFPPSSEELQANKATLVCLISDFYPGAVKVAWKADGSPVNTGVETTTPSKQSNNKYAASSYLSLTPEQWKSHRSYSCQVTHEGSTVEKTVAPAECSGGGGSEGKSSGSGSESKSTEGKSSGSGSESKSTGGGGSEVQLVESGGGLVQPGGSLKLSCAASGFTFNTYAMNWVRQAPGKGLEWVARIRSKYNNYATYYADSVKDRFTISRDDSKNTAYLQMNNLKTEDTAVYYCVRHGNFGNSYVSWFAYWGQGTLVTVSAASTKGPSVFPLAPSSKSTSGGTAALGCLVKDYFPEPVTVSWNSGALTSGVHTFPAVLQSSGLYSLSSVVTVPSSSLGTQTYICNVNHKPSNTKVDKRVEPKSCDKTHTCPPCPAPEAAGGPSVFLFPPKPKDTLMISRTPEVTCVVVDVSHEDPEVKFNWYVDGVEVHNAKTKPREEQYNSTYRVVSVLTVLHQDWLNGKEYKCKVSNKALPAPIEKTISKAKGQPREPQVYTLPPSREEMTKNQVSLSCAVKGFYPSDIAVEWESNGQPENNYKTTPPVLDSDGSFFLVSKLTVDKSRWQQGNVFSCSVMHEALHNRFTQKSLSLSPG
notes: scFab-Fc heterodimer, one B7H6 chain and one CD3 chain
B3: B7H6#22/CD3#1 (bispecific antibody, human IgG1, kappa, lambda, L234A L235A)
chain 1: B1 chain 1 with G57A, N283S, N306S
chain 2: B2 chain 2
notes: as for B2
B4: B7H6#16/CD3#1 (bispecific antibody, human IgG1, kappa, lambda, L234A L235A)
chain 1: B1 chain 1 with A84T, F87Y, N283S, K290R, I300M, N306S, D308E, K319R
chain 2: B2 chain 2
notes: as for B2
B5: B7H6#18/CD3#1 (bispecific antibody, human IgG1, kappa, lambda, L234A L235A)
chain 1: B1 chain 1 with G57A, A84T, F87Y, N283S, K290R, I300M, N306S, K319R
chain 2: B2 chain 2
notes: as for B2
B6: B7H6#15/CD3#1 (bispecific antibody, human IgG1, kappa, lambda, L234A L235A)
chain 1: B1 chain 1 with A84T, F87Y, K290R, I300M, N306S, K319R
chain 2: B2 chain 2
notes: as for B2
B7: B7H6#20/CD3#1 (bispecific antibody, human IgG1, kappa, lambda, L234A L235A)
chain 1: B1 chain 1 with G57A, A84T, F87Y, N283S, M289V, I300M, N306S, V320A
chain 2: B2 chain 2
notes: as for B2
B8: B7H6#21/CD3#1 (bispecific antibody, human IgG1, kappa, lambda, L234A L235A)
chain 1: B1 chain 1 with N283S, N306S, D308E
chain 2: B2 chain 2
notes: as for B2
B9: B7H6#23/CD3#1 (bispecific antibody, human IgG1, kappa, lambda, L234A L235A)
chain 1: B1 chain 1 with G57A, N283S, N306S, D308E
chain 2: B2 chain 2
notes: as for B2
B10: B7H6#19/CD3#1 (bispecific antibody, human IgG1, kappa, lambda, L234A L235A)
chain 1: B1 chain 1 with A84T, F87Y, N283S, M289V, I300M, N306S, D308E, V320A
chain 2: B2 chain 2
notes: as for B2

How the values were obtained:
Human B7H1 = target: T1, Human B7H1 (human, UniProt Q9NZQ7 20-239); assay: SPR, binder captured on Protein A/G, HuB7H1 analyte
T1 construct: also called HuB7H1; huB7-H1
T1 sequence (Q9NZQ7 other isoform, or with tags, fused parts or gaps limits assumed): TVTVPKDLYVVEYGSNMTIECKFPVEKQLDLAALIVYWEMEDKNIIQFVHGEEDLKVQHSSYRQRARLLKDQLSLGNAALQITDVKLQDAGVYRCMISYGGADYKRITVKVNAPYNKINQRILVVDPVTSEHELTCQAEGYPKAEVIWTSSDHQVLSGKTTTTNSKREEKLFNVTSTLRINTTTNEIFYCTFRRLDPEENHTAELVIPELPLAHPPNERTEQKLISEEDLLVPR
Procedure: (§1) To determine the affinity of human and cyno B7H6 and human B7H1 to B7H6/CD3 binding proteins, the experiment was performed on a Biacore™ 8K instrument (GE Healthcare Life Sciences). Briefly, the B7H6/CD3 binding protein was captured via Protein A/G. The running buffer for this experiment and all serial dilutions were prepared in HBS-EP+. The CM5 sensor chip was activated with an equal mixture of EDC/NHS across both flow cells for 420 s at a flow rate of 10 μL/min and immobilized with recombinant Protein A/G (50 μg/ml in 10 mM NaOAc, pH 4.5) across all flow cells for 420 s at a flow rate of 10 μL/min resulting in about 2500 RU of Protein A/G on the surface. The sensor chip was deactivated with 1M ethanolamine-HCl across all flow cells for 420 s at a flow rate of 10 μL/min.
(§2) About 700 RU of the B7H6/CD3 binding protein was captured on flow cell 2 of the Protein A/G surface for 60 s at a flow rate of 10 μL/min. The analytes HuB7H6, CyB7H6 and HuB7H1 were injected across both flow cells over captured B7H6/CD3 binding protein for 300 s at a flow rate of 30 μL/min with a dissociation of 1200 s. The concentrations of HuB7H6 and CyB7H6 were 0 nM, 6.25 nM, 12.5 nM, 25 nM, 50 nM and 100 nM. The concentrations of HuB7H1 were 0 nM and 1 μM. The surface was regenerated by injecting 10 mM glycine-HCl, pH 1.5 for 20 s at a flow rate of 30 μL/min across both flow cells.
(§3) The reference flow cell 1 (interactions with sensor surface) and blank (HBS-EP+ or 0 nM analyte) were subtracted from the raw data.

[1] = target: T2, chicken egg white lysozyme (chicken, UniProt P00698 19-147); assay: SPR, 1 µM binder over immobilized lysozyme
T2 construct: unrelated positively charged protein, amine-coupled to the chip; also called Lysozyme (positive)
T2 sequence (P00698 19-147): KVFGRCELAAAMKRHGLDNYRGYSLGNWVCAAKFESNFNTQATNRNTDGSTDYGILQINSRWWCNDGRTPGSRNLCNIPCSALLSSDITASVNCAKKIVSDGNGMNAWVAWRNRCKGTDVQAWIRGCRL
Procedure: (§4) The experiment was performed on a Biacore® T200 SPR system (GE Healthcare Life Sciences). The dilution, surface preparation, and binding experiments were performed at 25° C. in 1×HBS-EP buffer prepared from 10×HBS-EP. The flow rate for both the immobilization protocol and binding experiment was at 5 μL/min.
(§5) To prepare the surface for the non-specific binding experiment, chicken egg white lysozyme and trypsin inhibitor from Glycine max soybean were coupled manually to a Biacore® series S CM5 sensor chip (GE Healthcare sciences) with the surface density of 3000-5000 RU using the amine coupling kit according to the manufacture instructions. Samples were prepared at 1 μM in 1×HBS-EP buffer. The samples were injected over activated surfaces with a 10 min association and 15 min dissociation. The data was collected using Biacore® T200 Control Software version 2.0.1 and analyzed using Biacore® T200 Evaluation Software version 3.0 (GE Healthcare Life Sciences).

[2] = target: T3, trypsin inhibitor from Glycine max soybean (Glycine max (soybean)); assay: SPR, 1 µM binder over immobilized trypsin inhibitor
T3 construct: unrelated negatively charged protein, amine-coupled to the chip
T3 sequence (P01070 25-205): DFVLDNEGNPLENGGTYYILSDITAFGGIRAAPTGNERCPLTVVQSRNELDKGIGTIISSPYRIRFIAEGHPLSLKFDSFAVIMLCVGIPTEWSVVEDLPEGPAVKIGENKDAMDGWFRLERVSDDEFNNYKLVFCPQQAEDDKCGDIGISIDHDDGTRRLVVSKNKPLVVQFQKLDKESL
Procedure: as §4, §5

Cyno CD3 E+G HuFc-6xHis [3] = target: T4, Cyno CD3 E+G HuFc-6xHis (cynomolgus monkey); assay: ratio of SPR KDs cyno/human
T4 construct: also called CyCD3E+G-hFc; cyCD3
T4 sequence (chain, as listed by the source limits assumed): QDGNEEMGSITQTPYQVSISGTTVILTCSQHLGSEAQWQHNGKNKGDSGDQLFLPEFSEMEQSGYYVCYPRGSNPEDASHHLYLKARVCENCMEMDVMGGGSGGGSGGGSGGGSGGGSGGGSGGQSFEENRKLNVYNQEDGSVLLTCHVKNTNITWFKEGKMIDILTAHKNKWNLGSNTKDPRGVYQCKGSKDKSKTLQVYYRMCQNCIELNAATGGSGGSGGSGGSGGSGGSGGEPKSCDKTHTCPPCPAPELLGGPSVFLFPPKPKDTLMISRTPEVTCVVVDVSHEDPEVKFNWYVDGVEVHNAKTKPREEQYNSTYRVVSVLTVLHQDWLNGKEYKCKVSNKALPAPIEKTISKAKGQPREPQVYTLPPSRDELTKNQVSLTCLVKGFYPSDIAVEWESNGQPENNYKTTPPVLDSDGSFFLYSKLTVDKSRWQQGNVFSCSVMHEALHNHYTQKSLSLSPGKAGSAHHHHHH
Procedure: as §2, §3
(§6) The B7H6/CD3 binding protein analyte was injected horizontally over the immobilized surface for 300 s at a flow rate of 30 μL/min with a dissociation of 600 s. The concentrations of the B7H6/CD3 binding protein used were 0 nM, 1.2 nM, 3.7 nM, 11.1 nM, 33.3 nM and 100 nM.

Cyno B7H6-His [4] = target: T5, Cyno B7H6-His (cynomolgus monkey); assay: ratio of SPR KDs cyno/human
T5 construct: also called CyB7H6; cyB7-H6
T5 chain: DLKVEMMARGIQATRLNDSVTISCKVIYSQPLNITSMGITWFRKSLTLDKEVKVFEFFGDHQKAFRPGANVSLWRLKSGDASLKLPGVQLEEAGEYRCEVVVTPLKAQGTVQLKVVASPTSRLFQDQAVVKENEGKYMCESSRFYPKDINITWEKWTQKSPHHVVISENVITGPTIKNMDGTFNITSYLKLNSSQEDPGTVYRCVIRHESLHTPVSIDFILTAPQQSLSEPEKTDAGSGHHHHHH
Procedure: as §2, §3, §6

Cyno B7H6-His [5] = target: T5, Cyno B7H6-His; assay: SPR, binder captured on Protein A/G, B7H6 analyte
Procedure: as §1, §2, §3

Cyno CD3 E+G HuFc-6xHis [6] = target: T4, Cyno CD3 E+G HuFc-6xHis; assay: SPR, CD3E+G-hFc immobilized, binder analyte
Procedure: (§7) To determine the affinity of the B7H6/CD3 binding protein to human and cyno CD3E+G-hFc, the experiment was performed on a Bio-Rad ProteOn™ XPR36 instrument. Briefly, HuCD3E+G-hFc and CyCD3E+G were amine-coupled on a ProteOn™ GLM sensor chip (Bio-Rad) and the B7H6/CD3 binding protein was flowed over the immobilized surface. The running buffer for this experiment and all serial dilutions were prepared in HBS-EP+. The GLM sensor chip was normalized according to Bio-Rad's recommendations. The sensor chip was activated with an equal mixture of EDC/s-NHS in the horizontal direction for 300 s at a flow rate of 30 μL/min HuCD3E+G-hFc was immobilized in the vertical direction at 0.4 μg/mL, 0.2 μg/mL and 0.1 μg/mL in 10 mM acetate pH 4.5 to L1, L2 and L3, respectively, for 300 s at a flow rate of 30 μL/min resulting in about 100 RU of HuCD3E+G-hFc on L1, 40 RU of HuCD3E+G-hFc on L2 and 0 RU of HuCD3E+G-hFc on L3. CyCD3E+G-hFc was immobilized in the vertical direction at 0.4 μg/mL, 0.2 μg/mL and 0.1 μg/mL in 10 mM acetate pH 4.5 to L4, L5 and L6, respectively, for 300 s at a flow rate of 30 μL/min resulting in about 385 RU of […], 170 RU of CyCD3E+G-hFc on L5 and 50 RU of CyCD3E+G-hFc on L6. The sensor chip was deactivated with 1M ethanolamine-HCl in the horizontal direction for 300 s at a flow rate of 30 μL/min.
as §6
(§8) The interspot (interactions with sensor surface) and blank (HBS-EP+ or 0 nM analyte) were subtracted from the raw data.

Human CD3 E+G HuFc-6xHis = target: T6, Human CD3 E+G HuFc-6xHis (human); assay: SPR, CD3E+G-hFc immobilized, binder analyte
T6 construct: also called HuCD3E+G-hFc; huCD3
T6 sequence (chain, as listed by the source limits assumed): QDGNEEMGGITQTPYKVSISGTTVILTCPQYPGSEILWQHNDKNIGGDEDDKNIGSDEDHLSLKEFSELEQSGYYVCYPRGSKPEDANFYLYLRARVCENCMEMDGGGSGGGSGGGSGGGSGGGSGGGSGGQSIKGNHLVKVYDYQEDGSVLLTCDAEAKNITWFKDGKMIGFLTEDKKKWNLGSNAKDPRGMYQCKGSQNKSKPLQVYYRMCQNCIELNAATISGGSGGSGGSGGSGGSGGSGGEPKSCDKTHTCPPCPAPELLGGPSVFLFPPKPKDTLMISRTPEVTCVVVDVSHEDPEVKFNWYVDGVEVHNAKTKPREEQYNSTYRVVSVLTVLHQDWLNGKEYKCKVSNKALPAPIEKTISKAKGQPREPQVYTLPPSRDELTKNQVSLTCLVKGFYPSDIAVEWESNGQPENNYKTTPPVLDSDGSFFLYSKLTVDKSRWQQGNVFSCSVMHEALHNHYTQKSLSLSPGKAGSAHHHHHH
Procedure: as §7, §6, §8

| Binder | binding result (Human B7H1) | Non-specific binding (RU) [1] | Non-specific binding (RU) [2] | cy/hu CD3 (Cyno CD3 E+G HuFc-6xHis [3]) | cy/hu B7-H6 (Cyno B7H6-His [4]) | Kd (Cyno B7H6-His [5]) | Kd (Cyno CD3 E+G HuFc-6xHis [6]) | Kd (Human CD3 E+G HuFc-6xHis) |
| --- | --- | --- | --- | --- | --- | --- | --- | --- |
| B1 | no binding (tested: 1 µM) | 12.4 RU | 26.4 RU | 1.5 | 0.9 | 1.1 nM | 7.1 nM | 4.8 nM |
| B2 | no binding (tested: 1 µM) | 7.9 RU | 43.5 RU | – | 1.7 | 3.1 nM | – | 7.8 nM |
| B3 | no binding (tested: 1 µM) | 7.8 RU | 39.5 RU | – | 1 | 1.4 nM | – | 5.1 nM |
| B4 | no binding (tested: 1 µM) | 8.2 RU | 42.6 RU | – | 2.3 | 7.2 nM | – | 3.7 nM |
| B5 | no binding (tested: 1 µM) | 6.6 RU | 32.8 RU | – | 2.3 | 3.3 nM | – | 3.9 nM |
| B6 | no binding (tested: 1 µM) | 7.2 RU | 32.8 RU | – | 2.8 | 2.2 nM | – | 3.8 nM |
| B7 | no binding (tested: 1 µM) | 9.8 RU | 48.4 RU | – | 4.6 | 4.9 nM | – | 4 nM |
| B8 | no binding (tested: 1 µM) | 8.1 RU | 42 RU | – | 0.4 | 1.4 nM | – | 4.4 nM |
| B9 | no binding (tested: 1 µM) | 8.1 RU | 45.7 RU | – | 0.9 | 1.2 nM | – | 5.5 nM |
| B10 | no binding (tested: 1 µM) | 8.2 RU | 40.3 RU | – | 3.1 | 5.1 nM | – | 4 nM |
